The record followed here is patent publication US9029508 (dated 2015).

B1: DVD517 DLL4 arm (antibody, V domains shown)
VH: EVQLQQSGPELEKPGASVKISCKASGYSFTGYNMNWVKQSNGKSLEWIGNIDPYFGGTNYNQKFKGKATLTVDKSSSTAYMQLKSLTSEDSAVYYCARNYDYDGGCFDYWGQGTTLTVSS
VL: QAVVTQESALTTSPGETVTLTCRSSTGAVTTSNYANWVQEKPDHLFTGLIGGTNNRAPGVPARFSGSLIGDKAALTITGAQTEDEAIYFCALWYSNHWVFGGGTKLTVLG
modifications: DVD-Ig outer
B2: DVD518 DLL4 arm (antibody, V domains shown)
VH: EVQLQQSGPELEKPGASVKISCKASGYSFTGYNMNWVKQSNGKSLEWIGNIDPYFGGTNYNQKFKGKATLTVDKSSSTAYMQLKSLTSEDSAVYYCARNYDYDGGCFDYWGQGTTLTVSS
VL: QAVVTQESALTTSPGETVTLTCRSSTGAVTTSNYANWVQEKPDHLFTGLIGGTNNRAPGVPARFSGSLIGDKAALTITGAQTEDEAIYFCALWYSNHWVFGGGTKLTVLG
modifications: DVD-Ig inner
B3: DVD528 DLL4 arm (antibody, V domains shown)
VH: EVQLQQSGPELEKPGASVKISCKASGYSFTGYNMNWVKQSNGKSLEWIGNIDPYFGGTNYNQKFKGKATLTVDKSSSTAYMQLKSLTSEDSAVYYCARNYDYDGGCFDYWGQGTTLTVSS
VL: QAVVTQESALTTSPGETVTLTCRSSTGAVTTSNYANWVQEKPDHLFTGLIGGTNNRAPGVPARFSGSLIGDKAALTITGAQTEDEAIYFCALWYSNHWVFGGGTKLTVLG
modifications: DVD-Ig inner
B4: DVD530 DLL4 arm (antibody, V domains shown)
VH: EVQLQQSGPELEKPGASVKISCKASGYSFTGYNMNWVKQSNGKSLEWIGNIDPYFGGTNYNQKFKGKATLTVDKSSSTAYMQLKSLTSEDSAVYYCARNYDYDGGCFDYWGQGTTLTVSS
VL: QAVVTQESALTTSPGETVTLTCRSSTGAVTTSNYANWVQEKPDHLFTGLIGGTNNRAPGVPARFSGSLIGDKAALTITGAQTEDEAIYFCALWYSNHWVFGGGTKLTVLG
modifications: DVD-Ig inner
B5: DVD524 DLL4 arm (antibody, V domains shown)
VH: EVQLQQSGPELEKPGASVKISCKASGYSFTGYNMNWVKQSNGKSLEWIGNIDPYFGGTNYNQKFKGKATLTVDKSSSTAYMQLKSLTSEDSAVYYCARNYDYDGGCFDYWGQGTTLTVSS
VL: QAVVTQESALTTSPGETVTLTCRSSTGAVTTSNYANWVQEKPDHLFTGLIGGTNNRAPGVPARFSGSLIGDKAALTITGAQTEDEAIYFCALWYSNHWVFGGGTKLTVLG
modifications: DVD-Ig inner
B6: DVD531 DLL4 arm (antibody, V domains shown)
VH: EVQLQQSGPELEKPGASVKISCKASGYSFTGYNMNWVKQSNGKSLEWIGNIDPYFGGTNYNQKFKGKATLTVDKSSSTAYMQLKSLTSEDSAVYYCARNYDYDGGCFDYWGQGTTLTVSS
VL: QAVVTQESALTTSPGETVTLTCRSSTGAVTTSNYANWVQEKPDHLFTGLIGGTNNRAPGVPARFSGSLIGDKAALTITGAQTEDEAIYFCALWYSNHWVFGGGTKLTVLG
modifications: DVD-Ig outer
B7: DVD503 DLL4 arm (antibody, V domains shown)
VH: EVQLQQSGPELVKPGASVKMSCKASGYTFTSYVINWVKQKPGQGLEWIGLINPYNDGTKYNEKFKVKATLTSDKSSSTAYMELSSLTSEDSAVYYCASYYYGSRYYFDYWGQGTTLTVSS
VL: DIQMTQSSSYLSVSLGGRVTITCKASDHINNWLAWYQQKPGNAPRLLISGATSLETGVPSRFSGSGSGKDYTLSITSLQTEDVATYYCQQYWSIPLTFGAGTKLELKR
modifications: DVD-Ig outer
B8: DVD494 DLL4 arm (antibody, V domains shown)
VH: EVQLQQSGPELVKPGASVKMSCKASGYTFTSYVINWVKQKPGQGLEWIGLINPYNDGTKYNEKFKVKATLTSDKSSSTAYMELSSLTSEDSAVYYCASYYYGSRYYFDYWGQGTTLTVSS
VL: DIQMTQSSSYLSVSLGGRVTITCKASDHINNWLAWYQQKPGNAPRLLISGATSLETGVPSRFSGSGSGKDYTLSITSLQTEDVATYYCQQYWSIPLTFGAGTKLELKR
modifications: DVD-Ig inner
B9: DVD496 DLL4 arm (antibody, V domains shown)
VH: EVQLQQSGPELVKPGASVKMSCKASGYTFTSYVINWVKQKPGQGLEWIGLINPYNDGTKYNEKFKVKATLTSDKSSSTAYMELSSLTSEDSAVYYCASYYYGSRYYFDYWGQGTTLTVSS
VL: DIQMTQSSSYLSVSLGGRVTITCKASDHINNWLAWYQQKPGNAPRLLISGATSLETGVPSRFSGSGSGKDYTLSITSLQTEDVATYYCQQYWSIPLTFGAGTKLELKR
modifications: DVD-Ig inner
B10: DVD499 DLL4 arm (antibody, V domains shown)
VH: EVQLQQSGPELVKPGASVKMSCKASGYTFTSYVINWVKQKPGQGLEWIGLINPYNDGTKYNEKFKVKATLTSDKSSSTAYMELSSLTSEDSAVYYCASYYYGSRYYFDYWGQGTTLTVSS
VL: DIQMTQSSSYLSVSLGGRVTITCKASDHINNWLAWYQQKPGNAPRLLISGATSLETGVPSRFSGSGSGKDYTLSITSLQTEDVATYYCQQYWSIPLTFGAGTKLELKR
modifications: DVD-Ig outer
B11: DVD506 DLL4 arm (antibody, V domains shown)
VH: EVQLQQSGPELVKPGASVKMSCKASGYTFTSYVINWVKQKPGQGLEWIGLINPYNDGTKYNEKFKVKATLTSDKSSSTAYMELSSLTSEDSAVYYCASYYYGSRYYFDYWGQGTTLTVSS
VL: DIQMTQSSSYLSVSLGGRVTITCKASDHINNWLAWYQQKPGNAPRLLISGATSLETGVPSRFSGSGSGKDYTLSITSLQTEDVATYYCQQYWSIPLTFGAGTKLELKR
modifications: DVD-Ig inner
B12: DVD481 DLL4 arm (antibody)
chain 1: EVQLVESGGGLVQPGGSLRLSCAASGFTFTDNWISWVRQAPGKGLEWVGYISPNSGFTYYADSVKGRFTISADTSKNTAYLQMNSLRAEDTAVYYCARDNFGGYFDYWGQGTLVTVSS
chain 2: DIQMTQSPSSLSASVGDRVTITCRASQDVSTAVAWYQQKPGKAPKLLIYSASFLYSGVPSRFSGSGSGTDFTLTISSLQPEDFATTYYCQQSYTGTVTFGQGTKVEIKR
modifications: DVD-Ig outer
B13: DVD478 DLL4 arm (antibody)
chain 1: EVQLVESGGGLVQPGGSLRLSCAASGFTFTDNWISWVRQAPGKGLEWVGYISPNSGFTYYADSVKGRFTISADTSKNTAYLQMNSLRAEDTAVYYCARDNFGGYFDYWGQGTLVTVSS
chain 2: DIQMTQSPSSLSASVGDRVTITCRASQDVSTAVAWYQQKPGKAPKLLIYSASFLYSGVPSRFSGSGSGTDFTLTISSLQPEDFATTYYCQQSYTGTVTFGQGTKVEIKR
modifications: DVD-Ig inner
B14: DVD443 DLL4 arm (antibody, V domains shown)
VH: QVQLVQSGAEVKKPGASVKISCKASGYSFTAYYIHWVKQAPGQGLEWIGYISSYNGATNYNQKFKGRVTFTTDTSTSTAYMELRSLRSDDTAVYYCARDYDYDVGMDYWGQGTLVTVSS
VL: DIVMTQSPDSLAVSLGERATISCRASESVDNYGISFMKWFQQKPGQPPKLLIYAASNQGSGVPDRFSGSGSGTDFTLTISSLQAEDVAVYYCQQSKEVPWTFGGGTKVEIKR
modifications: DVD-Ig outer
B15: DVD447 DLL4 arm (antibody, V domains shown)
VH: QVQLVQSGAEVKKPGASVKISCKASGYSFTAYYIHWVKQAPGQGLEWIGYISSYNGATNYNQKFKGRVTFTTDTSTSTAYMELRSLRSDDTAVYYCARDYDYDVGMDYWGQGTLVTVSS
VL: DIVMTQSPDSLAVSLGERATISCRASESVDNYGISFMKWFQQKPGQPPKLLIYAASNQGSGVPDRFSGSGSGTDFTLTISSLQAEDVAVYYCQQSKEVPWTFGGGTKVEIKR
modifications: DVD-Ig outer

Chain of DLL4 (Q9NR61 27-524): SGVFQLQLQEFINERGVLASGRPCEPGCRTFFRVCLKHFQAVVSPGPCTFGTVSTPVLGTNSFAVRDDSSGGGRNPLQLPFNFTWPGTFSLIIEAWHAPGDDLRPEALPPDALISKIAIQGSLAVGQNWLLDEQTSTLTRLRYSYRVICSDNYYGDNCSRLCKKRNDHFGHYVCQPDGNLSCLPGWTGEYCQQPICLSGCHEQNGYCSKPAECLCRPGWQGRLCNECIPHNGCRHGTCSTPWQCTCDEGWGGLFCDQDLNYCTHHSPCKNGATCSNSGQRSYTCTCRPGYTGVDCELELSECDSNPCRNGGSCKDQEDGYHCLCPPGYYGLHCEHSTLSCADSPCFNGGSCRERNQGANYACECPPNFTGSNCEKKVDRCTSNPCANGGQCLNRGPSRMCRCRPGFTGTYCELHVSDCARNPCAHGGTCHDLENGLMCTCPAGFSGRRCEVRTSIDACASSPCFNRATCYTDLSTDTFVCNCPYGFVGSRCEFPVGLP

The test concerns the target DLL4 (human, UniProt Q9NR61). The experiment in a line: ELISA. (ELISA stands for enzyme-linked immunosorbent assay.)
On to B1, for which the midpoint of the response, the EC50, lay at 0.1 nM. Consider B2, for which a half-maximal effect (EC50) was put at 5.9 nM. Then B3, with 0.81 nM; and B4, with 0.22 nM. With B5 the figure was 0.22 nM; with B6, 0.57 nM. Then B7, with 0.33 nM.

Regarding B8, the response was half-maximal at 39.5 nM (EC50). Against the preceding molecule, the EC50 is about 120-fold higher. For B9, it took 5.59 nM to reach a half-maximal effect (EC50). On to B10, for which the EC50 (in general, the concentration giving half of the maximal effect) is 0.09 nM. Then B11, with 0.32 nM.

For B12, the EC50 was found to be 3.3 nM. This EC50 is about 10-fold higher than that of the molecule before. As for B13, a half-maximal effect (EC50) was put at 2.53 nM. This EC50 and that of the molecule before are within 1.5-fold of each other. Then B14, with 0.2 nM; and B15, with 0.12 nM.
